The source of these data is patent US20130164299A1 (CENTRE NATIONAL DE LA RECHERCHE SCIENTIFIQUE, published 2013).

Experiment [1] addresses T1, AICL, expressed on transfected 293T cells (UniProt Q92478 1-149, limits assumed).
T1 construct: whole, on cells; also called AICL-transfectants
T1 sequence (looked up): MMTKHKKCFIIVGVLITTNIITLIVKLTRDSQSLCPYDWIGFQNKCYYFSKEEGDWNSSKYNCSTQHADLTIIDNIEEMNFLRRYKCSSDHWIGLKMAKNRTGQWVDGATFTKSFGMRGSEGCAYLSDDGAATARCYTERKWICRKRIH
Kind of experiment: flow cytometry on 293T cells transfected with AICL.

Experiment [2] addresses T2, LLT1-Fc fusion protein (human, UniProt Q9UHP7 60-191, limits assumed).
T2 construct: also called LLT1-hFc; LLT-Fc; not shown: human Fc (hFc)
T2 sequence: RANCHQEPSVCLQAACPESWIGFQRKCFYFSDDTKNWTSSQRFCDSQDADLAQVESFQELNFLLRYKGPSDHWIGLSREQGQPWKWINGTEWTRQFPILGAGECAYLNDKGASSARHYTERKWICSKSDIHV
Kind of experiment: SPR (Biacore T100, 25 °C); LLT1-Fc immobilised on CM5 chip (500 RU), antibody 3.125 to 100 nM in solution. The protocol:
Surface plasmon resonance measurements were performed on a Biacore T100 apparatus (Biacore) at 25° C. In all Biacore experiments, HBS buffer supplemented with 0.05% surfactant P20 served as running buffer and sensorgrams were analyzed with Biaevaluation software. Recombinant LLT1-Fc fusion protein (described by Aldemir et al in Journal of Immunology, 2005 vol. 176: 7791-7795) were immobilized covalently to carboxyl groups in the dextran layer on a Sensor Chip CM5 (Biacore). The sensor chip surface was activated with EDC/NHS(N-ethyl-N′-(3-dimethylaminopropyl) carbodiimidehydrochloride and N-hydroxysuccinimide, Biacore). Proteins diluted in coupling buffer (10 mM acetate, pH 4.5) were injected. Deactivation of the remaining activated groups was performed using 100 mM ethanolamine pH 8 (Biacore).
Anti-LLT12F1A5 was tested in a range of concentrations from 3.125 to 100 nM for binding to immobilized LLT1-Fc protein (500 RU).

The target of experiment [3] is T3, CLEC2A-Fc protein (UniProt Q6UVW9 49-174).
T3 construct: Negative control coat in the ELISA; not shown: Fc portion recognised by anti-human Ig
T3 sequence (looked up): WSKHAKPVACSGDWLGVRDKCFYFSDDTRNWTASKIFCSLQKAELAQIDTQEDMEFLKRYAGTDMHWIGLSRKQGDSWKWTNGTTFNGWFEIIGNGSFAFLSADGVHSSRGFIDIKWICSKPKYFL
The experiment is described as follows: ELISA, coated Fc fusion protein. The procedure: Anti-LLT12F1A5 and anti-LLT14F were compared to mAb's 4C7 and MAB3480 with respect to binding to CLEC2D (LLT1) fusion proteins in the ELISA application. Wells were coated with Fc fusion proteins representing full-length CLEC2D or splice variant 2 and 4 hereof (CLEC2D-iso2 and -iso4, respectively). Full-length CLEC2D contains exons 1, 2, 3, 4a and 5, whereas isoforms 2 and 4 contain exons 1, 2, 3, 4a, 4b, 5 and exons 1, 2, 3, 5, respectively. Coated wells were incubated with anti-LLT12F1A5, anti-LLT14F, MAB3480 or 4C7 antibodies. Wells not coated with protein (PBS) or coated with CLEC2A-Fc protein were included as negative controls. Antibody binding was detected by HRP-conjugated anti-mouse Ig secondary antibody and chromogen. HRP-conjugated anti-human Ig antibody was included as a positive control that recognized the Fc portion of both fusion proteins.

Experiment [4] deals with T2, LLT1-Fc fusion protein. Kind of experiment: blocking assay by flow cytometry: binding of LLT1-Fc multimers to CD161 on 293T-CD161 cells in the presence of the antibody. The protocol: A multimeric complex was generated by incubating the LLT1-Fc fusion protein with biotinylated protein A (Pierce) at a molar ratio of 1:1. Saturating amounts of purified hIgG were added to block the remaining free protein A sites. A multimer control was generated using protein A-biotin saturated with purified hIgG. These complexes were conjugated to streptavidin-allophycocyanin (BD Biosciences). […] Anti-LLT14F (4F) or control IgG1 (ctrl IgG1) was added at concentrations 0.01-200 μg/ml. For comparison, anti-LLT12F1 (2F1A5) and AF3480 were tested in parallel with 4F in this assay. Binding of LLT1-multimers was evaluated by flow cytometry.

Experiment [5] addresses T4, lectin-like transcript 1 (LLT1), recombinantly expressed on cells (human, UniProt Q9UHP7 1-191).
T4 construct: In the Western blot the protein stood in cell extracts, in the IHC validation in fixed cells; also called CLEC2D; C1R-LLT1 transfectants
T4 sequence: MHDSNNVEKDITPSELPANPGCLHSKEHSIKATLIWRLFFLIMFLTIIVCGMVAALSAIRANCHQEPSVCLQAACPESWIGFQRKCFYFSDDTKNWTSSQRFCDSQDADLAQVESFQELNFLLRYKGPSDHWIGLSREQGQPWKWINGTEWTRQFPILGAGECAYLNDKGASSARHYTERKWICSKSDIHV
Kind of experiment: flow cytometry on C1R-LLT1 transfectants, anti-mouse IgG secondary antibody. The procedure: (§1) C1R-LLT1 transfectants and parental C1R cells were washed in PBS containing 1% FCS and incubated with anti-LLT14F or anti-LLT14F-hIgG4 antibody at concentrations 0.0003-10 μg/ml as indicated in FIG. 4 for 30 min at 4° C. followed by incubation with fluorochrome-conjugated anti-mouse or anti-human IgG secondary antibodies, respectively. Samples were washed three times in PBS containing 1% FCS and analysed by flow cytometry.

Experiment [6] deals with T4, lectin-like transcript 1 (LLT1), …. Kind of experiment: flow cytometry on C1R-LLT1 transfectants, anti-human IgG secondary antibody. The protocol: as §1

B1: anti-LLT12F1A5 (antibody, mouse IgG1, V domains shown)
VH: EVQLQQSGAELVRSGASVKLSCTASGFNIKDYYMHWVKQRPEQGLEWIGWIDPENGDTEYAPKFQGKATVTADTSSNTVYLQLSSLTSEDTAVYYCNGEIITTTAWFTYWGQGTLVTVSA
VL: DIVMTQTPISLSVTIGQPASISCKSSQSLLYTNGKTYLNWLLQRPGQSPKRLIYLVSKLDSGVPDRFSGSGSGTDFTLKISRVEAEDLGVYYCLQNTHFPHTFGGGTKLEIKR
notes: also called anti-LLT2F1; anti-LLT2F1A5
In the case of B1, the binding result in experiment [1] and in experiment [3] was “no binding” in each case. This molecule returned a Kd in experiment [2] of 1.24 nM.

B2: anti-LLT14F (antibody, mouse IgG1, V domains shown)
VH: EVQLVESGGGLVQPGGSLKLSCAASGFTVSSYGMSWVRQIPDKRLELVATINSNGGRTFYPDSVKGRFTISRDNAQNTLYLQMSSLKSEDTAMYYCARDGGYWAHFDYWGQGTTLTVSS
VL: DVLMTQTPLSLPVSLGDQASISCRSSQSIVHSNGNTYLEWYLQKPGQSPKLLIYKVSNRFSGVPDRFSGSGSGTDFTLKISRVEAEDLGVYYCFQGSHVPWTFGGGTKLEIKR
notes: also called anti-LLT14F68; anti-LLT1-4F68
As for B2, the “IC50 (read off the curve)” value in experiment [4] is around 6 µg/mL. The binding result in experiment [1] and in experiment [3] was “no binding” each time. The “EC50 (read off the curve)” value in experiment [5] was around 0.04 µg/mL.

B3: anti-LLT14F-hIgG4 (antibody, V domains shown)
VH: EVQLVESGGGLVQPGGSLKLSCAASGFTVSSYGMSWVRQIPDKRLELVATINSNGGRTFYPDSVKGRFTISRDNAQNTLYLQMSSLKSEDTAMYYCARDGGYWAHFDYWGQGTTLTVSS
VL: DVLMTQTPLSLPVSLGDQASISCRSSQSIVHSNGNTYLEWYLQKPGQSPKLLIYKVSNRFSGVPDRFSGSGSGTDFTLKISRVEAEDLGVYYCFQGSHVPWTFGGGTKLEIKR
notes: Murine variable domains of anti-LLT14F on human kappa/IgG4 scaffold; also called chimeric mouse/human anti-LLT14F; ChimLLT14F; not shown: human IgG4 heavy chain constant region (CH) with hinge mutation S241P; human kappa light chain constant domain (CL)
Regarding B3, the “EC50 (read off the curve)” value in experiment [6] was around 0.05 µg/mL.
